Experimental data published in article PMC4964982 (2016).
Bridge positions count the residues as written; N and C are the ends. Square brackets hold non-standard residues; d marks the D form. Ends that are not written are not given here. S5 = C=CCCC[C@](C)(N)C(=O)O

Key:
Assay in all cases: TR-FRET competition with SRC3 fragment
PFE-SP2 687-697 = target: T1, PFE-SP2 687-697 (Homo sapiens, UniProt Q15596, staple 3-7; also: R to Q substitution, place not given here)
T1 chain: HK[S5]LHR[S5]LQDS

SRC2-WT 687-697 = target: T2, SRC2-WT 687-697 (Homo sapiens, UniProt Q15596)
T2 chain: HKILHRLLQDS

SRC2-SP4 687-697 = target: T3, SRC2-SP4 687-697 (Homo sapiens, UniProt Q15596, staple 3-7)
T3 chain: HK[S5]LHR[S5]LQDS

IC50 (PFE-SP2 687-697): 760 nM
IC50 (SRC2-WT 687-697): 1100 nM
IC50 (SRC2-SP4 687-697): 390 nM
B1: ERα LBD (protein)
chain: NSLALSLTADQMVSALLDAEPPILYSEYDPTRPFSEASMMGLLTNLADRELVHMINWAKRVPGFVDLTLHDQVHLLECAWLEILMIGLVWRSMEHPGKLLFAPNLLLDRNQGKCVEGMVEIFDMLLATSSRFRMMNLQGEEFVCLKSIILLNSGVYTFLSSTLKSLEEKDHIHRVLDKITDTLIHLMAKAGLTLQQQHQRLAQLLLILSHIRHMSNKGMEHLYSMKCKNVVPLYDLLLEMLDAHRLHAPTS
